A word on the Kd: it is a measure of binding affinity in units of concentration. Usually stoichiometry N stands for a count of units in the complex or per binding partner.

Data on three molecules can be found in PMC9529903, “Structural insights of the elongation factor EF-Tu complexes in protein translation of Mycobacterium tuberculosis” (Communications Biology, 2022).

In assay [1] the target is EF-Ts (Escherichia coli) (UniProt P0A6P1). To be noted: cited from earlier work.
Assay [2] addresses T1, EF-Tu (Mycobacterium tuberculosis, UniProt P9WNN1).
T1 construct: gene tuf; full-length
The assay can be described thus: biochemical. The assay is classed as binding.

The target in assay [3] is T2, Mycobacterium tuberculosis elongation factor EF-Tu (Mycobacterium tuberculosis, UniProt P9WNN1 1-396).
T2 construct: also called Mtb EF-Tu
T2 sequence (P9WNN1 whole entry): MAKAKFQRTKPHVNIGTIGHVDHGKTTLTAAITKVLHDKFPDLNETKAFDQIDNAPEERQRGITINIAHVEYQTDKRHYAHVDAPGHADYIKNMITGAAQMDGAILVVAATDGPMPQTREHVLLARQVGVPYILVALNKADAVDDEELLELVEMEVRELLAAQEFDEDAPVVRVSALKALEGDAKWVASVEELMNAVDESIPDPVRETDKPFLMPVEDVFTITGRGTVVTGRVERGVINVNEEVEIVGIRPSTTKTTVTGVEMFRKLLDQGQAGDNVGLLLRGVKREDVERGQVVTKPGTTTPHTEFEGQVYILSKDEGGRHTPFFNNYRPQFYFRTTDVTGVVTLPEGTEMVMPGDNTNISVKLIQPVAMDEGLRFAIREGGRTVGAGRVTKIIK
The assay can be described thus: ITC. Particulars: both partners purified.

Sequence of EF-Ts (Escherichia coli) (P0A6P1 2-283): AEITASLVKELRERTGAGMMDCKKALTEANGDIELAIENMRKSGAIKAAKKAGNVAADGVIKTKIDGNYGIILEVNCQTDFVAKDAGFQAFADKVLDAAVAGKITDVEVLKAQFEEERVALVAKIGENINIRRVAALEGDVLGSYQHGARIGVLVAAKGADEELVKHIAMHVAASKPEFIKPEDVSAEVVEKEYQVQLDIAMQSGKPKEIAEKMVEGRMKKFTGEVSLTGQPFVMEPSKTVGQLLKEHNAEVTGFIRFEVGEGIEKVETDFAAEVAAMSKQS
T1 sequence (P9WNN1 whole entry): as the sequence (P9WNN1 whole entry) above

For the molecule EF-Tu (from UniProt P0CE47), in assay [1], the Kd is 2 nM.
Molecule `C=CC(=O)Nc1cc(Nc2nccc(-c3cn(C)c4ccccc34)n2)c(OC)cc1N(C)CCN(C)C` [Osimertinib] displayed a Kd in assay [2] of 207000 nM.

B1: Mycobacterium tuberculosis elongation factor EF-Ts (natural protein)
chain: MANFTAADVKRLRELTGAGMLACKNALAETDGDFDKAVEALRIKGAKDVGKRAERATAEGLVAAKDGALIELNCETDFVAKNAEFQTLADQVVAAAAAAKPADVDALKGASIGDKTVEQAIAELSAKIGEKLELRRVAIFDGTVEAYLHRRSADLPPAVGVLVEYRGDDAAAAHAVALQIAALRARYLSRDDVPEDIVASERRIAEETARAEGKPEQALPKIVEGRLNGFFKDAVLLEQASVSDNKKTVKALLDVAGVTVTRFVRFEVGQA
notes: also called Mtb EF-Ts
For B1, in assay [3], the Kd was around 1360 nM and the “stoichiometry N” value was 1.
